The chains are these.
B1: VH:VL chains; a variant is named by its letters at X, in order (parent)
chain 1: QVQLVQSGAEVKKPGASVKVSCKASGYTFTDYXMHWVRQAPGQGLEWMGXVNPNXXXTTYNQKFEGRVTMTTDTSTSTAYMELRSLRSDDTAVYYCARXNXLDXWGQGTTVTVSS
chain 2: DIQMTQSPSSLSASVGDRVTITCSVSSSVSSIYLHWYQQKPGKAPKLLIYSTSNLASGVPSRFSGSGSGTDFTLTISSLQPEDFATYYCQVYSGYPLTFGGGTKVEIK

The variants in the series derive from B1. Put plainly: yeast display scFab, FACS + sequencing. The method, boiled down: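 For the non-specific binding call, a heavy-chain CDR mutant scFab library on the yeast surface was FACS-sorted and samples from two replicates were deep sequenced. Cells were labelled with anti-Myc and either biotinylated ovalbumin (260 μg/mL in PBSB, 3 h, room temperature) or soluble membrane proteins (130 μg/mL, 20 min on ice), with gates on the top 25% and bottom 10% of binders. With membrane protein and ovalbumin samples pooled, a sequence in ≥3 of 4 positive samples and no negatives was scored positive, and the converse rule scored negatives.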
Regarding ARAKTSWV, the non-specific binding call is “binds”.
Consider YRAGGSVA, for which the non-specific binding call was “binds”.
For the variant VRAGDSLD, the non-specific binding call is recorded as “no binding”.
Turning to VRAGDSLS, the non-specific binding call is given as “no binding”.
With YRAKGSLA the entry was “binds”; with YRAKGSLD, “binds”.
With ARAGSFWA the entry was “binds”; with FRAGGAWY, “binds”.
As for FRAGGAWS, the non-specific binding call is listed as “binds”.
For the variant FRAGGAWV, the non-specific binding call is on record as “binds”.
Turning to YRAGDSVD, the non-specific binding call is on record as “no binding”.
With VRAGSSLD the entry was “no binding”; with DRAGDSSA, “no binding”; with YRAGGALS, “binds”.
Then VRARGAWF, with “binds”; and SRARGAAA, with “binds”; and YRAGGVGS, with “binds”.
In the case of YRAGGVGD, the non-specific binding call is recorded as “binds”.
For the variant YRAGGVGF, the non-specific binding call was “binds”.
With YRAGGYGY the entry was “binds”; with YRAGGYGD, “binds”.
With YRAGGYGF the entry was “binds”; with FRAGDAGV, “binds”.
On to YRAGSAAA, for which the non-specific binding call is recorded as “binds”.
For the variant YRAGSAAD, the non-specific binding call is given as “binds”.
As to YRAGGYVA, the non-specific binding call is on record as “binds”.
For the variant YRAGGYVD, the non-specific binding call is “binds”.
Then YRAGGYVF, with “binds”; and VRAGDSGY, with “no binding”.
On to VRAGDDVA, for which the non-specific binding call was “no binding”.
Then VRAGDDVF, with “no binding”.
Then VRAGDDVD, with “no binding”; and VRAGDYLV, with “no binding”; and FRAGGSLF, with “binds”.
Then FRAGGSLY, with “binds”.
On to ARAGGAAA, for which the non-specific binding call is given as “binds”.
On to DRAGDSLD, for which the non-specific binding call is “no binding”.
With DRAGDSLV, the non-specific binding call is recorded as “no binding”.
Turning to SRAGGSLY, the non-specific binding call is recorded as “binds”.
Turning to YRARGAAS, the non-specific binding call is given as “binds”.
Take YRARGAAY: the non-specific binding call is on record as “binds”.
For VRARGAGF, the non-specific binding call is “binds”.
With YRAGASGA the entry was “binds”.
As for YRAGASGD, the non-specific binding call is reported as “binds”.
Then FRAGGVGV, with “binds”.
With YRAGSSGA the entry was “binds”.
Then YRAGSSGD, with “binds”; and YRAGSSGV, with “binds”.
Regarding YRAGDAVV, the non-specific binding call is “no binding”.
Then DRAGDDAV, with “no binding”.
For YRAGDALD, the non-specific binding call is listed as “no binding”.
YRAKSALV: the non-specific binding call was “binds”.
Take YRARGSLF: the non-specific binding call is on record as “binds”.
On to YRARGSLA, for which the non-specific binding call is reported as “binds”.
Consider SRAGDYLV, for which the non-specific binding call is given as “no binding”.
With YRAKGAVV the entry was “binds”.
In the case of FRAGGSSV, the non-specific binding call is “binds”.
Then DRAGDSVD, with “no binding”; and YRAGGDAD, with “binds”.
Then FRARGAAY, with “binds”.
With FRARGAAV, the non-specific binding call is given as “binds”.
Then YRAGGAGY, with “binds”; and YRAGGFGY, with “binds”.
Then YRAGGFGS, with “binds”; and YRAKGSGV, with “binds”; and YRAKGSGD, with “binds”.
With VRAGDDAV the entry was “no binding”; with ARARGSGA, “binds”.
Turning to VRAGGDWV, the non-specific binding call is on record as “no binding”.
Then DRAGDDSA, with “no binding”; and VRAGGAWV, with “binds”; and DRAGDYLV, with “no binding”.
Consider DRAGDYLY, for which the non-specific binding call was “no binding”.
Then YRAGDSSS, with “no binding”.
Then YRAGDSSA, with “no binding”; and YRAGTSGD, with “binds”; and FRAGGAGV, with “binds”.
With FRAGGAGA the entry was “binds”; with YRAGDAAD, “no binding”; with YRARDDVF, “no binding”.
Regarding YRAGGAWY, the non-specific binding call was “binds”.
With YRAKGALF the entry was “binds”; with YRAKGALS, “binds”; with YRAKGALA, “binds”.
With VRAGDDGV the entry was “no binding”; with VRAGDDGA, “no binding”; with VRAGDDGS, “no binding”.
Then DRAGDAAV, with “no binding”.
DRAGDAAA: the non-specific binding call is “no binding”.
On to FRAGSSGV, for which the non-specific binding call is “binds”.
Then ARAGDYLV, with “no binding”.
With DRAGDSWA the entry was “no binding”.
Then DRAGDSWD, with “no binding”; and YRARGDLD, with “binds”.
For YRAGDDVA, the non-specific binding call is given as “no binding”.
With YRAGDDVY the entry was “no binding”; with YRAGGVVA, “binds”; with FRAGGALS, “binds”.
With YRAKGSVD the entry was “binds”; with ARAGGSVV, “no binding”; with YRAKGSWD, “binds”.
Turning to FRAGGSGD, the non-specific binding call was “binds”.
As to FRAGGSGA, the non-specific binding call is on record as “binds”.
With VRAGGDVF the entry was “no binding”; with FRAGGAVD, “binds”; with FRAGGAVY, “binds”.
Then DRAGDDLY, with “no binding”; and DRAGDDLA, with “no binding”; and DRAGDAVS, with “no binding”.
With DRAGDAVD the entry was “no binding”.
With YRAKGVGA, the non-specific binding call is given as “binds”.
With DRAGDALD, the non-specific binding call is on record as “no binding”.
Regarding ARAGDDAV, the non-specific binding call is “no binding”.
Then VRAGDDSD, with “no binding”; and VRAGAFSV, with “no binding”; and YRARGFGV, with “binds”.
Then YRARGFGA, with “binds”; and VRAGDSVA, with “no binding”; and YRAGSSAD, with “binds”.
Consider YRAGASAD, for which the non-specific binding call is recorded as “binds”.
Then YRAGASAV, with “binds”; and YRAGDSWD, with “no binding”.
Then DRAGDAGV, with “no binding”; and DRAGDAGY, with “no binding”.
With DRAGDAGS the entry was “no binding”.
Take DRAGDAGA: the non-specific binding call is reported as “no binding”.
As to FRARGSGA, the non-specific binding call is “binds”.
With VRAKGAGY the entry was “binds”; with DRAGGAGD, “no binding”.
Then DRAGDSGF, with “no binding”; and DRAGDSGA, with “no binding”; and VRAGSSWD, with “binds”.
With YRAGGYAA the entry was “binds”.
As to YRAGGASA, the non-specific binding call is “binds”.
With YRAKGSSS the entry was “binds”.
Turning to SRARGAGA, the non-specific binding call is “binds”.
With YRAGGFVV the entry was “binds”; with YRAGGFVA, “binds”.
As to FRAKGSAD, the non-specific binding call is “binds”.
With YRAGGDWY the entry was “binds”; with VRARGSSF, “binds”; with YRAKDALA, “no binding”.
For the variant FRAGSSWD, the non-specific binding call is on record as “binds”.
With YRAGGYWY the entry was “binds”; with VRAGGSVA, “binds”; with YRARGAWF, “binds”.
With YRARGAWD the entry was “binds”; with YRARGAWS, “binds”.
For YRARGAWY, the non-specific binding call is “binds”.
With YRARGAWV the entry was “binds”.
Then YRAGSSWD, with “binds”; and YRARGAGA, with “binds”.
Then YRARGAGS, with “binds”.
Regarding YRARGAGV, the non-specific binding call was “binds”.
With YRARGAGF the entry was “binds”; with YRARGAGY, “binds”.
YRAGSASD: the non-specific binding call is “binds”.
As for YRAGGSSY, the non-specific binding call is on record as “binds”.
Take YRARGAVA: the non-specific binding call is “binds”.
Then YRARGAVS, with “binds”; and YRAGGAAF, with “binds”.
Then ARAGDAVV, with “no binding”; and ARAGDAVA, with “no binding”.
With VRAGDALV the entry was “no binding”.
Turning to YRARGASA, the non-specific binding call is listed as “binds”.
Then FRAGGSVD, with “binds”; and YRAKGAWY, with “binds”.
Then VRAGDAGV, with “no binding”; and VRAGDAGA, with “no binding”.
With YRAGGDSA the entry was “no binding”.
For DRAGDDWV, the non-specific binding call is listed as “no binding”.
For DRAGDDWY, the non-specific binding call is on record as “no binding”.
With DRAGDDWA the entry was “no binding”; with YRAGASLA, “binds”; with YRAGTAAA, “binds”.
With FRAGGAAV the entry was “binds”; with FRAGGAAA, “binds”.
Take VRARGDGY: the non-specific binding call is “no binding”.
On to SRARDFGY, for which the non-specific binding call is “no binding”.
Then YRAKSSGV, with “binds”; and VRAGGDLA, with “no binding”.
With YRARGALV the entry was “binds”.
Then YRARGALS, with “binds”; and VRAGGSGD, with “binds”; and VRARGAAD, with “no binding”.
Regarding VRARGAAY, the non-specific binding call is “binds”.
With YRARGDGV the entry was “no binding”; with YRAKGSAV, “binds”; with YRAKGSAD, “binds”.
Then YRAKGSAA, with “binds”; and VRAGGDAA, with “no binding”.
With VRAGGDAV the entry was “no binding”; with DRAGDDVV, “no binding”; with DRAGDDVY, “no binding”.
For the variant DRAGDDVF, the non-specific binding call is listed as “no binding”.
Then FRARGAGS, with “binds”; and FRARGAGA, with “binds”; and FRARGAGV, with “binds”.
With YRAGGVAV the entry was “binds”.
Then YRAGTAVD, with “binds”; and YRAGTAVS, with “binds”.
With YRAKGYGA, the non-specific binding call is given as “binds”.
Then YRARGSGY, with “binds”; and YRARGSGV, with “binds”.
Consider VRAKGSAD, for which the non-specific binding call is recorded as “binds”.
Then ARAGSAWA, with “binds”.
On to YRAKGAGA, for which the non-specific binding call was “binds”.
Then YRAKGAGV, with “binds”.
With YRAKGAGD the entry was “binds”; with YRAKGAGS, “binds”; with YRAKGAAV, “binds”.
YRAKGAAA: the non-specific binding call is “binds”.
YRAKGAAD: the non-specific binding call is “binds”.
Then YRAGGSWF, with “binds”.
On to FRAGSAWS, for which the non-specific binding call is on record as “binds”.
Then YRAGDSGY, with “no binding”.
With VRAGDSSV the entry was “no binding”; with VRAGDSSA, “no binding”; with VRARGDVS, “no binding”.
Then VRAGGSAD, with “binds”; and DRAGDASD, with “no binding”.
For DRAGDDGA, the non-specific binding call is listed as “no binding”.
With DRAGDDGS the entry was “no binding”; with DRAGDDGD, “no binding”.
Then DRAGDDGY, with “no binding”; and FRAGDYLV, with “no binding”; and VRARGALV, with “binds”.
As for VRARGFVV, the non-specific binding call is reported as “binds”.
For YRAKSAVF, the non-specific binding call was “binds”.
Turning to VRAGADVY, the non-specific binding call is given as “no binding”.
Then VRAGADVD, with “no binding”; and VRAGADVV, with “no binding”.
With VRAGADWY the entry was “no binding”.
Then VRAGGFGA, with “binds”; and YRAGDFGV, with “no binding”; and FRAGGSAA, with “binds”.
Regarding YRAKSSSS, the non-specific binding call was “binds”.
On to VRAGGDSF, for which the non-specific binding call is recorded as “no binding”.
With YRARGSAV the entry was “binds”; with YRARGSAA, “binds”; with YRARGSAD, “binds”.
Then FRAGSAVV, with “binds”.
